Measurements from patent US20210130436A1.

Tests used:
CD28 (human) = CD28 (human) (UniProt P10747); experiment: cell-based or functional assay
PD-L1 (human) = PD-L1 (human) (UniProt Q9NZQ7); experiment: cell-based or functional assay
Sequence of PD-L1 (human) (Q9NZQ7 19-290): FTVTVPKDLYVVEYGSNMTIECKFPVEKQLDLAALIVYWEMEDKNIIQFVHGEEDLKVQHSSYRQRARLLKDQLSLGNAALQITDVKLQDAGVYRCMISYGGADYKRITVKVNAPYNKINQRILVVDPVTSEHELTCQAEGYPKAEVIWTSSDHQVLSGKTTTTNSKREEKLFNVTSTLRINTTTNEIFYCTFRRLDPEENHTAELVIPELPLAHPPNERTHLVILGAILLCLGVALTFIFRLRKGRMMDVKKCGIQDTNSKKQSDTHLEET

Row | IL-2 release, primary T cells; K562/OKT3 (No PD-L1); 1 nM (CD28 (human)) | IL-2 release, primary T cells; K562/OKT3 (No PD-L1); 10 nM (CD28 (human)) | IL-2 release, primary T cells; K562/OKT3 (No PD-L1); 100 nM (CD28 (human)) | RLU, Jurkat/IL2 reporter; K562/OKT3 aAPC, FcR Dependent Cross-Linking (No PD-L1); 0.6 nM (CD28 (human)) | RLU, Jurkat/IL2 reporter; K562/OKT3 aAPC, FcR Dependent Cross-Linking (No PD-L1); 1.9 nM (CD28 (human)) | RLU, Jurkat/IL2 reporter; K562/OKT3 aAPC, FcR Dependent Cross-Linking (No PD-L1); 5.6 nM (CD28 (human)) | RLU, Jurkat/IL2 reporter; K562/OKT3 aAPC, FcR Dependent Cross-Linking (No PD-L1); 16.7 nM (CD28 (human)) | RLU, Jurkat/IL2 reporter; K562/OKT3 aAPC, FcR Dependent Cross-Linking (No PD-L1); 50 nM (CD28 (human)) | RLU, Jurkat/IL2 reporter; K562/OKT3/PD-L1 aAPC, Combination of FcR and/or PD-L1 Dependent Cross-Linking; 0.6 nM (PD-L1 (human)) | RLU, Jurkat/IL2 reporter; K562/OKT3/PD-L1 aAPC, Combination of FcR and/or PD-L1 Dependent Cross-Linking; 1.9 nM (PD-L1 (human)) | RLU, Jurkat/IL2 reporter; K562/OKT3/PD-L1 aAPC, Combination of FcR and/or PD-L1 Dependent Cross-Linking; 5.6 nM (PD-L1 (human)) | RLU, Jurkat/IL2 reporter; K562/OKT3/PD-L1 aAPC, Combination of FcR and/or PD-L1 Dependent Cross-Linking; 16.7 nM (PD-L1 (human)) | RLU, Jurkat/IL2 reporter; K562/OKT3/PD-L1 aAPC, Combination of FcR and/or PD-L1 Dependent Cross-Linking; 50 nM (PD-L1 (human)) | IL-2 release, primary T cells; K562/OKT3/PD-L1; 10 nM (PD-L1 (human)) | Substance | further results
1 | 11400 | 20200 | 23100 | – | – | – | – | – | – | – | – | – | – | 3110 | WT CD80 ECD-Fc (effector) (from UniProt P33681 35-242) (Fc fusion) | IL-2 release, primary T cells; K562/OKT3/PD-L1; 1 nM (PD-L1 (human)): 507; IL-2 release, primary T cells; K562/OKT3/PD-L1; 100 nM (PD-L1 (human)): 8390
2 | 14600 | 23600 | 26800 | 2120 RLU | 3040 RLU | 5620 RLU | 7740 RLU | 8680 RLU | 2780 RLU | 3850 RLU | 4730 RLU | 5410 RLU | 5040 RLU | – | variant CD80 IgV-Fc (effector) E35D/M47L (Fc fusion) | –
3 | 6850 | 8320 | – | 1350 RLU | 1380 RLU | 1420 RLU | 1370 RLU | 1330 RLU | 1230 RLU | 1590 RLU | 2000 RLU | 2500 RLU | 2640 RLU | – | variant CD80 IgV-Fc (effector) A26E/E35D/M47L/L85Q (Fc fusion) | –
4 | – | – | – | – | – | – | – | – | – | – | – | – | – | 52 | variant CD80 IgV-Fc (inert) E35D/M43L/L70M (Fc fusion) | IL-2-luciferase RLU, Jurkat + CHO/OKT3/PD-L1 aAPC, 0.6 nM (CD28 (human)): 479 RLU; IL-2-luciferase RLU, Jurkat + CHO/OKT3/PD-L1 aAPC, 1.9 nM (CD28 (human)): 525 RLU; IL-2-luciferase RLU, Jurkat + CHO/OKT3/PD-L1 aAPC, 5.6 nM (CD28 (human)): 683 RLU; IL-2-luciferase RLU, Jurkat + CHO/OKT3/PD-L1 aAPC, 16.7 nM (CD28 (human)): 1070 RLU; IL-2-luciferase RLU, Jurkat + CHO/OKT3 aAPC (no PD-L1), 5.6 nM (CD28 (human)): 396 RLU; IL-2-luciferase RLU, Jurkat + CHO/OKT3 aAPC (no PD-L1), 16.7 nM (CD28 (human)): 439 RLU; IL-2-luciferase RLU, Jurkat + CHO/OKT3 aAPC (no PD-L1), 50 nM (CD28 (human)): 515 RLU
5 | 7600 | 7990 | 8380 | 1400 RLU | 1330 RLU | 1300 RLU | 1320 RLU | 1200 RLU | 920 RLU | 1110 RLU | 1400 RLU | 1760 RLU | 2270 RLU | – | variant CD80 IgV-Fc (effector) E35D (Fc fusion) | –
6 | 14300 | 21500 | 25400 | 1880 RLU | 2720 RLU | 4400 RLU | 6020 RLU | 7020 RLU | 1420 RLU | 2430 RLU | 3310 RLU | 3640 RLU | 4130 RLU | – | variant CD80 IgV-Fc (effector) E35D/D46V/L85Q (Fc fusion) | –
7 | 7030 | 7900 | – | 1340 RLU | 1370 RLU | 1380 RLU | 1430 RLU | 1510 RLU | 689 RLU | 732 RLU | 735 RLU | 701 RLU | 805 RLU | – | variant CD80 IgV-Fc (effector) E35G/K54E/A71D/L72P (Fc fusion) | –

Further lines, the substance ahead of its results:

Row | Substance | IL-2 release, primary T cells; K562/OKT3 (No PD-L1); 1 nM (CD28 (human)) | IL-2 release, primary T cells; K562/OKT3 (No PD-L1); 10 nM (CD28 (human)) | IL-2 release, primary T cells; K562/OKT3 (No PD-L1); 100 nM (CD28 (human)) | RLU, Jurkat/IL2 reporter; K562/OKT3 aAPC, FcR Dependent Cross-Linking (No PD-L1); 0.6 nM (CD28 (human)) | RLU, Jurkat/IL2 reporter; K562/OKT3 aAPC, FcR Dependent Cross-Linking (No PD-L1); 1.9 nM (CD28 (human)) | RLU, Jurkat/IL2 reporter; K562/OKT3 aAPC, FcR Dependent Cross-Linking (No PD-L1); 5.6 nM (CD28 (human)) | RLU, Jurkat/IL2 reporter; K562/OKT3 aAPC, FcR Dependent Cross-Linking (No PD-L1); 16.7 nM (CD28 (human)) | RLU, Jurkat/IL2 reporter; K562/OKT3 aAPC, FcR Dependent Cross-Linking (No PD-L1); 50 nM (CD28 (human)) | RLU, Jurkat/IL2 reporter; K562/OKT3/PD-L1 aAPC, Combination of FcR and/or PD-L1 Dependent Cross-Linking; 0.6 nM (PD-L1 (human)) | RLU, Jurkat/IL2 reporter; K562/OKT3/PD-L1 aAPC, Combination of FcR and/or PD-L1 Dependent Cross-Linking; 1.9 nM (PD-L1 (human)) | RLU, Jurkat/IL2 reporter; K562/OKT3/PD-L1 aAPC, Combination of FcR and/or PD-L1 Dependent Cross-Linking; 5.6 nM (PD-L1 (human)) | RLU, Jurkat/IL2 reporter; K562/OKT3/PD-L1 aAPC, Combination of FcR and/or PD-L1 Dependent Cross-Linking; 16.7 nM (PD-L1 (human)) | RLU, Jurkat/IL2 reporter; K562/OKT3/PD-L1 aAPC, Combination of FcR and/or PD-L1 Dependent Cross-Linking; 50 nM (PD-L1 (human)) | IL-2 release, primary T cells; K562/OKT3/PD-L1; 10 nM (PD-L1 (human)) | further results
8 | WT CD80 IgV-Fc (effector) (Fc fusion) | 7170 | 7120 | 6200 | 1410 RLU | 1350 RLU | 1310 RLU | 1210 RLU | 1250 RLU | 662 RLU | 674 RLU | 697 RLU | 673 RLU | 663 RLU | – | –
9 | variant CD80 IgV-Fc (effector) H18Y/A26T/E35D/A71D/L85Q (Fc fusion) | – | 20500 | 20600 | 2080 RLU | 2810 RLU | 4550 RLU | 6960 RLU | 8750 RLU | 1160 RLU | 1820 RLU | 3120 RLU | 4330 RLU | 5220 RLU | – | –
10 | variant CD80 IgV-Fc (inert) E35D (Fc fusion) | – | – | – | – | – | – | – | – | – | – | – | – | – | 210 | IL-2-luciferase RLU, Jurkat + CHO/OKT3/PD-L1 aAPC, 0.6 nM (CD28 (human)): 456 RLU; IL-2-luciferase RLU, Jurkat + CHO/OKT3/PD-L1 aAPC, 1.9 nM (CD28 (human)): 465 RLU; IL-2-luciferase RLU, Jurkat + CHO/OKT3/PD-L1 aAPC, 5.6 nM (CD28 (human)): 625 RLU; IL-2-luciferase RLU, Jurkat + CHO/OKT3/PD-L1 aAPC, 16.7 nM (CD28 (human)): 995 RLU; IL-2-luciferase RLU, Jurkat + CHO/OKT3/PD-L1 aAPC, 50 nM (CD28 (human)): 1610 RLU; IL-2-luciferase RLU, Jurkat + CHO/OKT3 aAPC (no PD-L1), 5.6 nM (CD28 (human)): 412 RLU; IL-2-luciferase RLU, Jurkat + CHO/OKT3 aAPC (no PD-L1), 16.7 nM (CD28 (human)): 480 RLU; IL-2-luciferase RLU, Jurkat + CHO/OKT3 aAPC (no PD-L1), 50 nM (CD28 (human)): 448 RLU; IL-2 release, primary T cells; K562/OKT3/PD-L1; 100 nM (PD-L1 (human)): 2740
11 | variant CD80 IgV-Fc (effector) A71D/L72V/E95K (Fc fusion) | – | 15100 | 21300 | 1820 RLU | 2590 RLU | 4130 RLU | 5550 RLU | 7110 RLU | – | 1540 RLU | 2520 RLU | 3640 RLU | 4030 RLU | – | –
12 | variant CD80 IgV-Fc (inert) E35G/K54E/A71D/L72P (Fc fusion) | – | – | – | – | – | – | – | – | – | – | – | – | – | – | IL-2-luciferase RLU, Jurkat + CHO/OKT3/PD-L1 aAPC, 0.6 nM (CD28 (human)): 529 RLU; IL-2-luciferase RLU, Jurkat + CHO/OKT3/PD-L1 aAPC, 1.9 nM (CD28 (human)): 489 RLU; IL-2-luciferase RLU, Jurkat + CHO/OKT3/PD-L1 aAPC, 5.6 nM (CD28 (human)): 554 RLU; IL-2-luciferase RLU, Jurkat + CHO/OKT3/PD-L1 aAPC, 16.7 nM (CD28 (human)): 504 RLU; IL-2-luciferase RLU, Jurkat + CHO/OKT3/PD-L1 aAPC, 50 nM (CD28 (human)): 476 RLU; IL-2-luciferase RLU, Jurkat + CHO/OKT3 aAPC (no PD-L1), 5.6 nM (CD28 (human)): 417 RLU; IL-2-luciferase RLU, Jurkat + CHO/OKT3 aAPC (no PD-L1), 16.7 nM (CD28 (human)): 475 RLU; IL-2-luciferase RLU, Jurkat + CHO/OKT3 aAPC (no PD-L1), 50 nM (CD28 (human)): 440 RLU; IL-2 release, primary T cells; K562/OKT3/PD-L1; 100 nM (PD-L1 (human)): 59
13 | Fc only Control (inert Fc) (from UniProt P0DOX5 218-448) | 7040 | 6340 | 5510 | 1400 RLU | 1390 RLU | 1390 RLU | 1370 RLU | 1370 RLU | 689 RLU | 675 RLU | 666 RLU | 694 RLU | 679 RLU | 143 | –
